Measurements reported in patent US20220323583A1 (MacroGenics, published 2022).

Assays:
[1] = molecular target: human CD123 on target cell lines (Kasumi-3, Molm13, THP-1, TF-1, RS4-11) (human, UniProt P26951 19-378); experiment: cell-based or functional assay
[2] = molecular target: T1, Human CD123-His (human, UniProt P26951 19-305, limits assumed); experiment: kinetic binding measurement, method not stated
T1 construct: Only the label 'Human CD123-His' is printed; also called interleukin 3 receptor alpha; IL-3Ra; not shown: His tag
T1 sequence (looked up): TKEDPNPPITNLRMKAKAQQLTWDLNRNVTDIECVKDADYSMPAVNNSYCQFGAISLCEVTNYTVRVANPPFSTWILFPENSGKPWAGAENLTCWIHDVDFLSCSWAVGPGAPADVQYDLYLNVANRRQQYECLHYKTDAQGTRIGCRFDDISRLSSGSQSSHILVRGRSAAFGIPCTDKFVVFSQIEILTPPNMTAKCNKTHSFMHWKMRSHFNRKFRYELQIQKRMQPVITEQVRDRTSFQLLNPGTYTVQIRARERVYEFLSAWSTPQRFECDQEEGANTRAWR

[3] = molecular target: T2, Cynomolgus CD123-His (cynomolgus monkey); experiment: kinetic binding measurement, method not stated
T2 construct: Only the label 'Cynomolgus CD123-His' is printed; also called cynomolgus monkey CD123

B1: DART-A, sequence-optimized CD123×CD3 bispecific diabody (bispecific antibody)
chain 1: QAVVTQEPSLTVSPGGTVTLTCRSSTGAVTTSNYANWVQQKPGQAPRGLIGGTNKRAPWTPARFSGSLLGGKAALTITGAQAEDEADYYCALWYSNLWVFGGGTKLTVLGGGGSGGGGEVQLVQSGAELKKPGASVKVSCKASGYTFTDYYMKWVRQAPGQGLEWIGDIIPSNGATFYNQKFKGRVTITVDKSTSTAYMELSSLRSEDTAVYYCARSHLLRASWFAYWGQGTLVTVSSGGCGGGEVAALEKEVAALEKEVAALEKEVAALEK
chain 2: DFVMTQSPDSLAVSLGERVTMSCKSSQSLLNSGNQKNYLTWYQQKPGQPPKLLIYWASTRESGVPDRFSGSGSGTDFTLTISSLQAEDVAVYYCQNDYSYPYTFGQGTKLEIKGGGSGGGGEVQLVESGGGLVQPGGSLRLSCAASGFTFSTYAMNWVRQAPGKGLEWVGRIRSKYNNYATYYADSVKDRFTISRDDSKNSLYLQMNSLKTEDTAVYYCVRHGNFGNSYVSWFAYWGQGTLVTVSSGGCGGGKVAALKEKVAALKEKVAALKEKVAALKE
notes: Two chains covalently bonded by a disulfide bond, no Fc; a second species lacks the C-terminal lysine; also called CD123×CD3 diabody; CD123 × CD3 Bi-Specific Diabodies
EC50 of redirected killing, E:T = 10:1, Kasumi-3 target cells [1]: 0.01 ng/mL | EC50 of redirected killing, E:T = 10:1, Molm13 target cells [1]: 0.18 ng/mL | EC50 of redirected killing, E:T = 10:1, RS4-11 target cells [1]: 0.5 ng/mL | EC50 of redirected killing, E:T = 10:1, TF-1 target cells [1]: 0.46 ng/mL | EC50 of redirected killing, E:T = 10:1, THP-1 target cells [1]: 0.24 ng/mL | Kd [2]: 130 pM | koff [2]: 0.00019 s⁻¹ | kon [2]: 1.6e+06 M⁻¹ s⁻¹ | Kd [3]: 270 pM | koff [3]: 0.0004 s⁻¹ | kon [3]: 1.5e+06 M⁻¹ s⁻¹
